Measured values published in the supplement of paper PMC10724198.
± gives the standard deviation of the averaged measurements.

System: Saccharomyces cerevisiae
Assay: protein stability index of tFT-peptide fusion (C-terminal peptide) (PSI (0-1 scale)); higher = more stable (slower turnover)
Details: genetic background: wild type; temperature: 30 C
Method: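 Multiplexed protein stability (MPS) profiling in S. cerevisiae. Random 12-aa peptides (tFT-X12 library) are fused to the C-terminus of a sfGFP-mCherry tandem fluorescent timer, after mCherry and a GGGS linker. Cells are FACS-sorted into 8 mCherry/sfGFP bins and deep-sequenced. The protein stability index (PSI) is the read-weighted bin average, scaled from 0 (unstable) to 1 (stable). Only peptides with >10 reads are reported; cells were grown at 30 °C in SC-His with glucose.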
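Further: PSI is a weighted mean of sequencing reads over stability bins, variants kept only with over 10 reads, mCherry proximal and sfGFP distal, peptide attached via GGGS linker.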

Sequence | protein stability index
CFASTFVSPILH | 0.694 ± 0.03
CFFVRLSSFYCS | 0.63 ± 0.0089
CFLFSFSLFPFV | 0.618 ± 0.066
CFPALSGVQGGM | 0.706 ± 0.082
CFPPLPPPPPPS | 0.736 ± 0.0077
CFPRVLFPVAAP | 0.608 ± 0.049
CFPSSVPFPSLL | 0.778 ± 0.058
CFVLPWHVPFGF | 0.715 ± 0.021
CGCGCPSRVLVS | 0.643 ± 0.061
CGCSLPGFCFLA | 0.53 ± 0.022
CGDAGSVGCVYV | 0.699 ± 0.055
CGEGGVCRLVFS | 0.682 ± 0.0074
CGGAADWRDWGW | 0.775 ± 0.086
CGGFAEGGGCRM | 0.697 ± 0.028
CGLFFSCVGVSG | 0.6411 ± 0.005
CGQGRSVPFRSV | 0.658 ± 0.0094
CGQKREFKEGGG | 0.634 ± 0.0059
CGWLTCSAGFCA | 0.726 ± 0.11
CGWSQLCRDSES | 0.675 ± 0.042
CGYVSGGWAGNV | 0.691 ± 0.025
CHTDLPLLGTSR | 0.681 ± 0.022
CHTESKLKRKKW | 0.645 ± 0.028
CIPCLLAYPETC | 0.655 ± 0.14
CIRPPPPSPKLM | 0.694 ± 0.0096
CISIRKEERRKI | 0.7012 ± 0.0019

Sequence | protein stability index
CKCRRYYTLNGG | 0.656 ± 0.025
CKFPSLCVLSSV | 0.654 ± 0.07
CKHPAWFQPRVG | 0.618 ± 0.044
CKIGMFIRWIGG | 0.571 ± 0.04
CKLDVMSRSFVG | 0.664 ± 0.0089
CKNRLKMKQESK | 0.658 ± 0.028
CLAFDLGLSPLF | 0.755 ± 0.099
CLEGCTIHTSGE | 0.652 ± 0.015
CLFWWDASTILP | 0.68 ± 0.13
CLGGRRVCRCKG | 0.631 ± 0.054
CLGVCAFSFCCN | 0.624 ± 0.012
CLLPGSSYSFTS | 0.712 ± 0.045
CLMHTENCIRKA | 0.674 ± 0.032
CLRDTLTCLFFF | 0.5953 ± 0.0044
CLRGLLVMLYQR | 0.54 ± 0.01
CLRRGGAGEGAS | 0.687 ± 0.0037
CLRWSRVGTVVV | 0.564 ± 0.025
CLSDPDVVRVLS | 0.6914 ± 0.0018
CLSLLWRVLDLW | 0.688 ± 0.065
CLWGQWAVGCMG | 0.6169 ± 0.0019
CNGPRLFDKSPI | 0.695 ± 0.017
CNRVSLSNVRLF | 0.6675 ± 0.00083
CPFPLPPPTLPP | 0.657 ± 0.01
CPGVLVLMCGRP | 0.589 ± 0.009
CPLLSCAAFLSS | 0.719 ± 0.025

Sequence | protein stability index
CPLLSPTPPLRP | 0.703 ± 0.019
CPPLEWSLRYPV | 0.722 ± 0.017
CPPRIAFPCGIQ | 0.649 ± 0.094
CPPRPLHSPLPP | 0.694 ± 0.022
CRGGLGASCRGR | 0.67 ± 0.008
CRGGPLGYGCGS | 0.827 ± 0.17
CRGRGGCPMSWR | 0.689 ± 0.1
CRGRSGMCNLET | 0.751 ± 0.04
CRGWVRVAGLRA | 0.604 ± 0.085
CRKIKFIQKINK | 0.623 ± 0.046
CRLRLVYCVKYD | 0.621 ± 0.013
CRMPLFGSYPLG | 0.683 ± 0.022
CRSNISDLFSSV | 0.7793 ± 0.0063
CSEDMVGSIVVV | 0.651 ± 0.041
CSFFGPGFICSL | 0.666 ± 0.013
CSLFIRCAPFCG | 0.705 ± 0.017
CSLFRCSKVVLG | 0.672 ± 0.037
CSLGLGGRVAAL | 0.697 ± 0.048
CSLSYFSAHCVP | 0.665 ± 0.044
CSLTVGYNRHDV | 0.635 ± 0.00084
CSLVWPGSMSVD | 0.738 ± 0.033
CSNKIILMTRNN | 0.564 ± 0.041
CSPLNFGNGLLL | 0.584 ± 0.013
CSRTIGGFLWDQ | 0.6994 ± 0.0054
CSSLPPCPYSLP | 0.654 ± 0.12

Sequence | protein stability index
CSSVRRRSWCFS | 0.846 ± 0.16
CSTIRDFTIYPP | 0.694 ± 0.11
CSVGLPPLPPLH | 0.704 ± 0.076
CSVVMGFYCRGA | 0.694 ± 0.038
CTGISVFYLFGD | 0.66 ± 0.033
CTLSQGLSGSRI | 0.6609 ± 0.0024
CTLWCIPGCNMR | 0.666 ± 0.066
CTPVLLLRVLGN | 0.58 ± 0.036
CTSCHVWRLSRF | 0.765 ± 0.034
CVCVCHPPRRFL | 0.719 ± 0.015
CVGLIGVINGGL | 0.558 ± 0.0081
CVGPSVERGFWG | 0.689 ± 0.031
CVGTLSPKTVRT | 0.697 ± 0.024
CVLGVGVPAGGG | 0.634 ± 0.032
CVPPSFRPSLFD | 0.75 ± 0.015
CVREDSRPFPAS | 0.76 ± 0.044
CVSRRRGGEIGG | 0.655 ± 0.044
CVSSALRVPGRE | 0.699 ± 0.027
CVTFGGCGVWYV | 0.624 ± 0.018
CVWFGVGRCCGR | 0.648 ± 0.043
CVWHELTYGSLY | 0.66 ± 0.062
CWASTFGLGFLP | 0.757 ± 0.0022
CWCRVGSSGCVR | 0.668 ± 0.039
CWGAGPRLVRVW | 0.4998 ± 0.00039
CWLGSIAGLRGR | 0.7399 ± 0.0064

Sequence | protein stability index
CWPLITTNCTVP | 0.7081 ± 0.0054
CYRWVLGVDARV | 0.649 ± 0.012
DAMSTRSRLLTR | 0.7109 ± 0.0051
DASCAPAQYLPI | 0.673 ± 0.025
DASGGKKVSRGT | 0.571
DCCTGGKCLEVW | 0.603 ± 0.047
DCMSSVFQSPPG | 0.693 ± 0.01
DCSCCGGVSCVV | 0.639 ± 0.014
DCVWGLERVLLL | 0.756 ± 0.016
DCWAGWGLCGGG | 0.723 ± 0.042
DDIGGRKLCVRG | 0.6692 ± 0.0028
DEKKMEKQTNRT | 0.638 ± 0.045
DENEKIKKVKVK | 0.754 ± 0.02
DERVSAQDFLEG | 0.6873 ± 0.003
DEWAGKYLKTIA | 0.702 ± 0.013
DFILVRGWADLR | 0.616 ± 0.059
DFKHKYREKKKF | 0.615 ± 0.062
DFLCHFCVIDEC | 0.653 ± 0.066
DFSLRCIAIPRV | 0.651 ± 0.046
DFVGCSGRGSFV | 0.72 ± 0.023
DGASAARQGGAR | 0.7171 ± 0.00082
DGCLMEHSMQVG | 0.656 ± 0.035
DGCRLGDFLNRV | 0.66 ± 0.042
DGGHSFLSVARG | 0.644 ± 0.04
DGGSGQGMLGGS | 0.628 ± 0.043

Sequence | protein stability index
DGGVGGRAPRVR | 0.744 ± 0.097
DGKTKKKTRSLR | 0.652 ± 0.034
DGRMGAGVAGTG | 0.636 ± 0.069
DGRRRHCYTITA | 0.661 ± 0.031
DGSMRKWGQGVG | 0.575 ± 0.067
DHGRLFSNILIS | 0.645 ± 0.028
DHRGSIWWAGSG | 0.702 ± 0.0034
DIERRMEVINNG | 0.696 ± 0.032
DIGSSGRVGGLG | 0.712 ± 0.031
DIRGGDMGEWRE | 0.683 ± 0.023
DIVSGGLCVEVL | 0.643 ± 0.033
DIVVGANISSIN | 0.641 ± 0.02
DKACVHPRTVTG | 0.703 ± 0.07
DKATGARGKPPR | 0.649 ± 0.13
DKDWDHGSLCIP | 0.692 ± 0.074
DKKATTSIGIKK | 0.642 ± 0.07
DKLDKKTLYLRK | 0.729 ± 0.061
DKSEINKPTKGK | 0.675 ± 0.021
DKSIGIYIVRSH | 0.731 ± 0.012
DKVIIRKLRTSK | 0.6863 ± 0.0051
DKVKILVGVAGW | 0.607 ± 0.036
DKVLQSLALKCK | 0.508 ± 0.0074
DLASPIFSRFSS | 0.687 ± 0.036
DLCITNTMLFYL | 0.7025 ± 0.006
DLGPLFVSWSTW | 0.778 ± 0.021

Sequence | protein stability index
DLIRIRHACGFL | 0.663 ± 0.048
DLPYLYPRCLIS | 0.72683 ± 0.00028
DLSDGHFSTASP | 0.678 ± 0.0069
DLTQHRQHKPQK | 0.735 ± 0.043
DPFFPPYTPSPS | 0.782 ± 0.049
DPFYRNFARREA | 0.738 ± 0.026
DPGTNGGCAPPV | 0.676 ± 0.0014
DPKNEINAKENI | 0.689 ± 0.069
DPPLPAHPDVPP | 0.771 ± 0.086
DPQRQDVFRVSE | 0.6823 ± 0.0021
DPRPHPPFARSP | 0.699 ± 0.026
DPRSPLSHSFLR | 0.706 ± 0.044
DPWGGTGKGHWG | 0.679 ± 0.0056
DQATEPTPKPPD | 0.643 ± 0.0079
DQSSTIYKIIKE | 0.672 ± 0.045
DRCSRFRCFFVG | 0.6 ± 0.031
DRLGGDWMERGG | 0.688 ± 0.032
DRPWAGGGLGVC | 0.621 ± 0.081
DRRLGKHEYQPY | 0.737 ± 0.022
DRRLPVSPPTIV | 0.774 ± 0.12
DRRQLSVVARRT | 0.648 ± 0.027
DRRRGMVRKTHV | 0.659 ± 0.019
DRRVSYKKKKRK | 0.672 ± 0.14
DRSRWMVVRGGG | 0.648 ± 0.13
DSCGVFLGDFFQ | 0.727 ± 0.026

Sequence | protein stability index
DSDGILTEPTSW | 0.707 ± 0.0094
DSDSVMPFERLM | 0.659 ± 0.0095
DSFDLPCLFKVP | 0.659 ± 0.078
DSHDMSQDLFVN | 0.767 ± 0.039
DSIALNKDVFWW | 0.773 ± 0.02
DSLTKYSAKEYR | 0.5777 ± 0.0052
DSNTAGLTRDIA | 0.645 ± 0.015
DSQSRRFDRSRN | 0.671 ± 0.076
DSVRGNDSGSGL | 0.7245 ± 0.0064
DTHESELNQLNG | 0.6902 ± 0.0032
DTPERKGNLEEH | 0.709 ± 0.053
DVGWRATGVLGG | 0.7106 ± 0.0052
DVGWRVFVFGGL | 0.704 ± 0.038
DVLSPRPSPLPS | 0.665 ± 0.0093
DVRSGRAVVGGW | 0.63 ± 0.051
DWYLVGGRVFWV | 0.721 ± 0.015
DYLDYPSYNDLT | 0.599 ± 0.038
DYRKGDVETPFV | 0.677 ± 0.032
DYVVHSGTYGPK | 0.687 ± 0.021
EAIGGVPASSRP | 0.661 ± 0.0091
EALTTAATRYGP | 0.651 ± 0.0068
